Measurements as given in the supplement of paper PMC10567573.

B1: FBXO3 (parent)
chain: FIDTYSDVGRYIDHYAAIKKAWDD

Variants of: B1
Test: protein stability index of a GFP-peptide fusion (GPS, HEK-293T) (PSI 1-6); higher = more stable
Details: c terminus: a fixed tail appended
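Further: lentivirally expressed fusions sorted by FACS into six bins by GFP to DsRed ratio, PSI derived from sequencing read proportions per bin multiplied by bin number.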

Protein stability index of substitutions, site by site:
D7: L 1.93; M 2.64; N 1.77; P 2.16; Q 1.53; R 2.14; S 2.32; T 1.68; V 2.43; W 2.67; Y 2.01
V8: A 1.79; C 1.9; D 3.07; E 2.32; F 1.79; G 2.07; H 1.82; I 2.62; K 2.02; L 1.92; M 2.03; N 2.2; P 2.72; Q 1.79; R 1.59; S 1.72; T 1.65; W 1.62; Y 1.81
G9: A 1.62; C 1.65; D 1.57; E 2.15; F 1.9; H 1.9; I 1.75; K 1.85; L 2.22; M 3.14; N 2.05; P 1.85; Q 2.03; R 1.7; S 1.91; T 1.83; V 1.77; W 1.83; Y 2
R10: A 1.6; C 1.9; D 2.32; E 2.56; F 2.23; G 1.92; H 1.56; I 1.48; K 1.82; L 1.85; M 1.75; N 1.88; P 1.78; Q 2.58; S 2.1; T 1.83; V 2.86; W 1.46; Y 1.75
Y11: A 1.82; C 1.66; D 1.78; E 1.38; F 1.89; G 1.66; H 1.78; I 2; K 2.06; L 1.42; M 1.85; N 2.25; P 2.24; Q 2.06; R 2.37; S 2.2; T 1.59; V 1.93; W 2.39
I12: A 2.21; C 2.21; D 1.82; E 1.99; F 2.09; G 2.19; H 1.91; K 1.76; L 1.97; M 1.72; N 1.78; P 2.05; Q 2.3; R 2.27; S 1.32; T 1.93; V 2; W 1.41; Y 1.98
D13: A 1.98; C 1.77; E 1.32; G 2.6; H 2.06; I 2.88; K 2.1; L 2.24; M 2.07; N 2.34; P 1.83; Q 2.7; R 1.3; S 1.84; T 1.5; V 2.2; W 2.51; Y 2.58
H14: A 2.01; C 2.31; D 2.7; E 1.84; F 2.19; G 2.11; I 1.71; K 1.87; L 1.66; M 1.75; N 1.58; P 2.38; Q 1.63; R 2.38; S 2.49; T 1.71; V 2.27; W 1.87; Y 1.82
Y15: A 1.93; C 2.24; D 2.08; E 1.94; F 2.14; G 1.87; H 2.32; I 2.15; K 1.93; L 1.53; M 1.55; N 1.97; P 1.57; Q 2.96; R 2.61; S 1.48; T 1.82; V 1.99; W 2.08
A16: C 2.08; D 1.6; E 1.89; F 1.69; G 2.44
